# Literature values as cited in patent US20250108009A1, “METHOD FOR SYNTHESIZING HYBRID NANOPARTICLES COMPRISING APOLIPOPROTEINS” (MEPSGEN CO., LTD., priority 2022, published 2025).
# Settings: Bekard et al. 2011
substance,measurement,value
insulin,shear rate at which structural changes and aggregates are formed,200 s⁻¹
same,shear stress at which structural changes and aggregates are formed,1000 dyne/cm^2
